# Results published in the nanobody polyreactivity screen of Harvey et al. (2022).
# Experiment: yeast display, Sf9 membrane polyspecificity reagent, FACS + sequencing; frameworks hold sequencing errors
# How it was run: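 Nanobodies from a synthetic yeast display library (Saccharomyces cerevisiae BJ5465), induced 36–48 hours with galactose, were stained 1 hour at 4 °C with 10% biotinylated, detergent-solubilized Sf9 membrane reagent, enriched on streptavidin microbeads, then FACS-sorted. Anti-HA (expression) and streptavidin (reagent binding) fluorescence set low and high (top ~1%) gates. Polyreactivity labels come from the gate of origin. Genes were colony-PCR amplified, MiSeq 2 × 250 sequenced and filtered by CDR length.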
row,Sequence,polyreactivity (PSR sort gate)
1,QVQLVESGGGLVQAGGSLRLSCAASGLIFGGYAMGWYRQAPGKERELVAAISSSGGRTYYADSVKGRFTISRDNAKNTVYLQMNSLKPEDTAVYYCATRVHYRNDYWGQGTQVTVSS,high polyreactivity
2,QVQLQESAGGLVQAGGSLRLRCSASGYISCDASMGWYRQAPGKERELAASITKGSSTNYADSVKGRFTIRDNAKNTVYLQMNSLKPEDSAVCYCAVTYPYWGDYTYWGQGTQVTVSS,low polyreactivity
3,QVQLVESGGGLVQAGGSLRLSFAASGFTFTLYAMGLYRQAPGKEREFVAAITARGGSTYYADSVKGRFTISRDNAKNTVYLQMNSLKPEDTAVYYCNKEYGSRRYPYRYNYWGQGTQVTVSS,high polyreactivity
4,QVQLVVSGGGLVQAGGSLRLSCAASGRIFVINAMGWYRQAPGNERELVAAITWIGGTTYYADSVKGRFTISRDNAKNTVYLQLNSLKREDTAVYYCARQRSYGRSSYSYGYDYWGQGTQVTVSS,high polyreactivity
5,QVQLVESGGGLVQAGCSLRLSCAASGITFYGNAMGSYRQAPGKERELVAAISRRGGSTYYADSVKGRFTSSRDNAKNSVYLQMISLKPEDTAVYYCAARYYSWSFRFDYWGQGTQLTVSS,high polyreactivity
6,QVQLVESGGGLVQAGGILRLSCASSGSIFVTFAMGWYRQAPGTEREFVAAINWIGGSTYYADSVKGRFTISRDNAKNTVYLQMNSLKPEDTAVYDCGKRYYRRYDYWGQGTQVTVSS,high polyreactivity
7,QVQLVESGGGLVQAGGSLRLSCAASGSIFQINAMGWYRPAPGKERECVASITYSGGSTYYADSVKGRFTISRDNAKNTVYLQMNSLKPEDTAVYYCAAESYWGYDYWGQGTQVTVSS,high polyreactivity
8,QVQLVESGGGLVQAGGSLRLSCAASGFIFAYYAMGWYRQAPGKERELVAAITWSGGITYYADSVKGRFTISRDNAKNTVYLQMNSLKPEDTAVYYCNRAWSSHRYYYWGQGTQVTVSS,high polyreactivity
9,QVQLVESGVGLVQAGGSLRLSCAASGFIFYGYAMGWYRQAPGKERELVAGNSTGGSTNYADSVKGRFTISRENAKNTVYLQMNSMKPEDTAVYDGAVVDVEQHVGHWGQVTQVTVSS,low polyreactivity
10,QVQLVESGGGLVQAAGSLRLSCAASGLTFRVNDMGWYRQAPGKERELVATISSGGSTYYADSVKGRFTISRDNAKNTVYLQMNSLKAVDTAVYYCATNSEGQESNSYYVWMGYWGQGTKVTVSS,low polyreactivity
11,QVQLVESGGGLVQAGGSLRLSCAASGSTFKYYAMGWYRQAPGKERELVATITRRSGSTYYADSVKGRFTISRDNAKNTVYLQMNSLKPEDTAVYYCNAYGPYKYNYWGQGTQVTVSS,high polyreactivity
12,QDQLVVSGGGLVQAGGSLRLSCAAYGFIVRSYDMGWYIQAPGKEREMVAAITSDVNSYYADSVKGRFTISRDNAKNTVYLQMNSLKPEDTAVYYFNADAVVYRDYQDYDYWGQGTQVTVSS,low polyreactivity
13,QVQLVESGGGLVQAGGSLRLSCAASGLIFYYYAMGWYRQAPGKEREFVAAINSSGDSTYYADSVKGRFTISRDNAKNTVYLQMNSLKPEDTAVYYCNVDWYLHEYDYWGQGTQVTVSS,low polyreactivity
14,QVQLVESGGGLVQAGGSLRVSCAASGRTFRPNAMGWYRQAPGKERELVAAISGGGGSTYYADSVKGRFTISRDIAKNTVYLLMNSLKPEVTAVYYCNKVEQGRYGYWGQGTQVTVSS,high polyreactivity
15,QVQLVESGGGLVQAGGSLRLSCAASGSIFESYAMGWYRQAPGKERELVAAITSSGDSTYYADSVKGRFTISRDNAKNTVYLQMNSLKPEDTAVDYCAKRVPTYISTADWGSRYDYWGQGTQVTVSS,low polyreactivity
16,QVQLVESGGCLVQAGGSLRLSCAASGSIFYKYAMGWYRQAPGKERELVAAITSGGRTTYADSVKGRFTISRDNAKNTVYLQMNSLKPEDTAVYYCAAVVFSRRYWVKFYYWGQGTQVNVSS,high polyreactivity
17,QVQLVESGGGLVQAGGSLRLICAASGRTFTRYAMGWYRQAAGKERELVAAITSTGSTYYADSVKGRFTISRDNAKNTVYLQMNSLKPEDTAVYYCNKVGIRYYYGYDYWGQGTQVTVSS,high polyreactivity
18,QVQLVESGGGLVQAGGSLRLSCAASGIIFGGYAMGWYRQAPGKERELVARITSGGSTNYADSVKGRFTISRDNAKNTVYLQMNSLKPEDTAVYYCAARSFWKWGYYYWGQGTQVTVSS,high polyreactivity
19,QVQLVESGGGLVQSGGTLRLSCAASGSTFYVNAMGWYRLAPGKERELVAAINYSGGNTYYADSVKGRFTFSRDNAKNTVYLQMNTLKQEDTAVYYCAVDLIIKGYPWWIEDDYWGQGTQVTVSS,high polyreactivity
20,QVQLVESGGGLVQAGGSLRLSCAASGRIFQLYTMGWYRQAPGKERELVAAITSGTSTSYADSVKGRFTISRDNAKNTVYLQMNSLKPEDTAVYYCNKGSVSYSSVFVPYESDYWGQGTQVTVSS,low polyreactivity
21,QVQLVESGGGLVQAGGSLRLSCADSGIIFTQYAMGWYRQAPGKERELVAGISKSGGSTYYADSVKGRFTISRDNAKNTVYLQMNSLKPEDTAVYYCAAPVPKTDKLLRMYYWGQGTQVTVSS,high polyreactivity

row,Sequence,polyreactivity (PSR sort gate)
1,QVQHVESGGGLVQAGGSLRLSSAASGSIFSYNAMGWYRQSPGKERELVAAIRASGGDTYYADSVKGRFTISRDNAKNTVYLQMNSLKPEDTAVYYCAARTYSHHYASHGYWGQGTQVTVSS,low polyreactivity
2,QVQLVESGGGLVQAGGSLRLSCAASGNTFYVNVMGWYRHAPGKEREFVAAISTRGVSTSYADSVKGRFTISRDYAKNTVYLQMNRLKPEDTAVYYCAKRFLPPGRAVTYDYWGQGTQVTVSS,high polyreactivity
3,QVQLVESGGGLVQAGGSLSLSCAASGIIIRRYAMGWYRQAPRKERELVATITWSGGSTYYADSVKGRFTISRDNAKNTVYLQMNSLKPEDTAVDYCAKLTSYRGRYNYWGQGTQVTVSS,high polyreactivity
4,QVHLVESGGGLVQAGGSLRLSCAASGRIFSRNAMGRYRQAPGKERELVAAISSDGNTNYADSVKGFTISRDNAKNTVYLQMNSLKPESTAVYYCAARFGYTAYGYWGQGTQVTVSS,low polyreactivity
5,QVQLVESGGGLVQAGRSLRLSCAASGRIFRYNTMGWYRQAPGKERELVARINRGGSTNYADSVKGRFTISRDNAKNTVYLQMNSLKAEDTAVYYCNARYTARHYPFSNFDYWGQGTQVTVSS,high polyreactivity
6,QVQLVESGGGLVQAGGSLRLSCAASGLTFALYAMGWYRQAPGQERELVAAIDWSGGITYYADSVKGRFTISRDHAKNTVYLQMNSLKPEDTAVYYCAARPSTFKYKYGYWGQGTQVTVSS,high polyreactivity
7,HVQLVESGGGLVQAGGSLRFSCAASVSTLRWNAMGWYRQAPAKEREMVAAITYSGGSTYYADSVKGLFTISRDNAKNTVYLQMNSLKPEDTAVYYCAADSYRYRPGYGPVLYDYWGQGTQVTVSS,high polyreactivity
8,QVQLVESGGGLVQAGGSLRLSCAASGRIIGAYAMGWYRQAPGKERELVAAITSRGGNTYYADSVKGRITISRDNAKNTVYFQMNSLKPEDTAVYYCAAGVRAYNWCEYDYWGQGTQVTVSS,low polyreactivity
9,QVQLVESGGGLVQAGGSLRLSSAASGNIFVYYAKGLYRHAPGKERELVAAISKRGGSTYYADSVKGRFTISRDNAKNTVYLQMNSLKPEDTAVYYCAALGHVDDSIYDYWGQGTQLTVSS,high polyreactivity
10,QVQLVESGGGLVQAGGSLRLSCAASGSIFGYYAMVWKRQAPGKESELVAAMNYSGVSTYYADSVKGRFTISRDNAKNTVYLQMNSLKPEDSAVYYCARDIRRKGFRYDYWGQGTQVTVSS,high polyreactivity
11,QDQLVETGGGLVQARGSLRLSCAASGITFDKYAMGWYRQAPGKERELVAAISGSDGSTYYADSVKGRFTISRDNAKNTVYLQMNSLKQEDTSVYYCAAESEYAGTFEYDYWGQGTQVSVSS,low polyreactivity
12,QVQLVESGGGLVQAGGGHRLSCAASGRTFTYNAMGWYRQAPGKERELVAAITSGGSTNYADSVKGRYTISRDNAKNTVYLQMNSLKPEDTAVYYCAADGDDYTTTEFDYWGQGTQVTVSS,low polyreactivity
13,QVQLVESGGGLVQAGGSLRLSCAACGFIFRRYAMGWYRQAPGKERELVAAISSGGNTNYADSVKGRFTISRDNAKNTVYLQMNSLKPEDTAVYYCAVLGWYYYKYDYWGQGTQVNVSS,high polyreactivity
14,QVQLVESGGGLVQAGGSLRLSCAASGSTIVSYDMGWYRPAPGKDRELVAAITYDGDSTYYADSVKGRFTISRDNAKNTVYLQMNSLKPEDTAVYYCAAEPGDDLKFRGGFEYWGQGTQVTVSS,low polyreactivity
15,QVQLVETGVGLVKAGGSLRLSSAASGYIFYYYAMGWYRQERGKERELVAAISTSDTRTFYADSVKGRFSISRDNAKNTVYLQMNSLKPEDTAVYYCAASLYICGPNYGYEYWGLGTQVTVSS,low polyreactivity
16,QVQLVESGGGLVQAGGSLRLSCAASGSIFYGYVMGCYTQAPGKERELVAAISGGGSTNYADSVKGRFTISRDNAKNTVYLQMNSLKPEDTAVYYCNTEDWAVGSPEVEYEYDYWGQGTQVTVSS,low polyreactivity
17,QVQLVESGGGLVQAGGSLRLSCAAYGRIFNEYAMGWYRQAPGKERELVAAITYSDDSTYYADSVKGRFTISRDNAKNTVYLQMISLKPEDTAVYYRNADTPVWDGHAYPVDYWGQGTQVTVSS,low polyreactivity
18,QVQLVESGGGLVQAGGSLRLSCAASGSILRQYAMGWYRQAPGKERELVATISRSGGSKYYADSVKGRFTISRDNAKNTVYLQMNSLKPEDTAVYYCAASRYNKSYREWWVGSWGQGTQVTVSS,high polyreactivity
19,QVQLVESGGGLVQAGGSLRLSCAASGFTFPSYDMGWYRQAPGKERELVAAISWSGTSTYYADSVKGRFTISRDNAKNTVYLQMNSLKPEDTAVYYCNAQYSYLWGEYGYWGQGTQVTVSS,high polyreactivity
20,QVHLVESGGGLVQAGGSLRLSCAASGSTFTYYAMGWYRQAPGKERELVAAITGRGGRTYYADSVKGRFTISRDNAKNTVYLQMNSLKPEDTAVYYCARYPSSDTYWTKYDYWGQGTQVTVSS,high polyreactivity
